According to the supplement of paper PMC9732359:
± gives the uncertainty stated by the source.

Assay: protein stability index of a GFP-peptide fusion (yeast GPS) (PSI 1-4); higher = more stable; sorted into four equal gates, so the index is relative within each strain
Method in brief: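 Peptides tiling yeast proteins in 17-residue segments were fused downstream of GFP, with Cherry expressed from the same plasmid. As a pooled library in yeast, mid-log cultures grown in leucine-free medium were sorted into four equal gates by GFP/Cherry fluorescence ratio. Gate plasmids were PCR-amplified and Illumina-sequenced, and barcodes linked reads to strains. Each peptide received a protein stability index equal to the sum of each gate's read frequency times its gate number.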

Row | Sequence | protein stability index (doa10∆) | protein stability index (pdr5∆) | protein stability index (san1∆) | protein stability index (ubr1∆)
1 | HILAVKKMMNTLVHTRV [SSN2] | 2.25 ± 0.056 | 2.03 ± 0.062 | 2.06 ± 0.086 | 1.34 ± 0.059
2 | FIKFKLIQQVPPGLDAL [CDC53] | 2.29 ± 0.067 | 2.13 ± 0.11 | 2.23 ± 0.13 | 2.27 ± 0.095
3 | EVYTKTIEVLDEVITEG [POP7] | 2.84 ± 0.069 | 3.12 ± 0.064 | 3.15 ± 0.053 | 3.03 ± 0.067
4 | NWRLVEVGRVVLIKKGQ [RPL14A] | 2.17 ± 0.18 | 1.74 ± 0.13 | 2.15 ± 0.13 | 2.19 ± 0.19
5 | MKQYRDFLGVASTGSGK [PRP28] | 2.77 ± 0.1 | 2.72 ± 0.12 | 2.88 ± 0.061 | 2.93 ± 0.043
6 | VLSQFERSYPSEFANQN [ROX3] | 2.26 ± 0.098 | 3.15 ± 0.097 | 2.63 ± 0.15 | 2.78 ± 0.11
7 | DKLTSIQDTLRTGSQSP [MED7] | 2.7 ± 0.042 | 2.82 ± 0.045 | 2.69 ± 0.032 | 2.89 ± 0.033
8 | PINLQNGEEDEVALFSQ [YLR335W/NUP2] | 3.11 ± 0.14 | 3.39 ± 0.17 | 3.22 ± 0.054 | 3.17 ± 0.18
9 | GLALQLFKKLKEENDEG [RPN2] | 3.27 ± 0.12 | 3.28 ± 0.12 | 2.96 ± 0.1 | 3.41 ± 0.096
10 | ETQYFWKLLNQLVLRGL [YJR042W/NUP85] | 2.18 ± 0.19 | 1.26 ± 0.074 | 1.26 ± 0.11 | 1.16 ± 0.1
11 | RPNLPTHNFKLSGVSNS [RGR1] | 1.72 ± 0.13 | 1.49 ± 0.062 | 1.85 ± 0.088 | 2.12 ± 0.054
12 | QLDSYLVNGFSQSQQKL [MED2] | 2.02 ± 0.05 | 2.35 ± 0.063 | 2.38 ± 0.064 | 2.72 ± 0.046
13 | AIRKAPHNSKSLGFLQQ [RPN3] | 2.9 ± 0.082 | 2.7 ± 0.086 | 2.84 ± 0.083 | 2.54 ± 0.13
14 | QLFNWCLMRSLHKLELK [DSN1] | 1.17 ± 0.058 | 1.26 ± 0.059 | 1.14 ± 0.13 | 1.19 ± 0.058
15 | NISSSQQLLPAPQLFPY [DSN1] | 2.44 ± 0.12 | 2.71 ± 0.097 | 2.62 ± 0.078 | 2.84 ± 0.086
16 | PAELDLRGSLLSRKPSD [RPC82] | 2.9 ± 0.13 | 3.38 ± 0.12 | 3.11 ± 0.099 | 3.19 ± 0.078
17 | TSKTVSNQFKRSLATAV [COR1] | 2.47 ± 0.11 | 2.32 ± 0.075 | 2.34 ± 0.092 | 1.8 ± 0.056
18 | QRYVKSVKSVKFPTRKI [RPC34] | – | – | 3.26 ± 0.11 | –
19 | NVEEEQIVPYIEKLTDG [BRR2] | 3.05 ± 0.061 | 3.06 ± 0.06 | 2.91 ± 0.071 | 3.2 ± 0.061
20 | SALIENNLFRIIAELSF [YJL039C/NUP192] | 2.22 ± 0.066 | 2.34 ± 0.056 | 2.04 ± 0.074 | 2.53 ± 0.052
21 | HIFQVEYALEAVKRGTC [PRE6] | 2.76 ± 0.15 | 2.75 ± 0.13 | 2.54 ± 0.19 | 2.77 ± 0.19
22 | IPKQLLDDEKIFSQTTN [YJL039C/NUP192] | 2.55 ± 0.077 | 2.77 ± 0.051 | 2.69 ± 0.059 | 3.1 ± 0.052
23 | MGPPSGKTYMGWWGHMG [QCR8] | – | – | 3.13 ± 0.2 | –
24 | FLLRRVKADVEKSLLPK [ISW2] | 3.19 ± 0.13 | 3.05 ± 0.17 | 3.02 ± 0.079 | 2.94 ± 0.1
25 | KNGVIPEESKGSFKYIT [SWP82] | 3.03 ± 0.05 | 3.09 ± 0.067 | 2.96 ± 0.047 | 3.18 ± 0.052
26 | QELRKKVNPNIMNMIEN [SMC2] | 2.45 ± 0.13 | 2.72 ± 0.11 | 2.37 ± 0.13 | 2.47 ± 0.062
27 | QPMISPDNSIFGDTKSE [SWI3] | 3.14 ± 0.059 | 3.38 ± 0.087 | 2.94 ± 0.098 | 3.1 ± 0.061

Row | Sequence | protein stability index (doa10∆) | protein stability index (pdr5∆) | protein stability index (san1∆) | protein stability index (ubr1∆)
28 | QVLMDINTLNGGSSDTA [GAL11] | 3.29 ± 0.074 | 3.22 ± 0.072 | 3.15 ± 0.061 | 3.1 ± 0.061
29 | ISTSFCFICLLHLANEH [BRN1] | 1.67 ± 0.12 | 1.21 ± 0.13 | – | 1.35 ± 0.13
30 | GVARNFHFAIEQISNNS [SIN4] | 2.8 ± 0.1 | 2.13 ± 0.075 | 2.08 ± 0.064 | 2.97 ± 0.062
31 | YYDRKEELKNMFLYILK [RRI2] | 2.16 ± 0.22 | 1.95 ± 0.13 | 1.27 ± 0.11 | 1.52 ± 0.1
32 | NLKVELKEQSEQLKEQM [SMC4] | 3.27 ± 0.055 | 3.2 ± 0.067 | 3.29 ± 0.035 | 3.2 ± 0.057
33 | GENAAEKPDNSNHNNLN [SNF2] | 3.01 ± 0.068 | 3.25 ± 0.064 | 3.27 ± 0.05 | 3.21 ± 0.035
34 | AGASPMVNTQQPIVTGT [PRE4] | 2.67 ± 0.17 | 2.67 ± 0.29 | – | –
35 | TTSVDVMLKGIVTALLE [SRP54] | 1.27 ± 0.047 | 1.22 ± 0.056 | 1.18 ± 0.1 | 1.11 ± 0.04
36 | YEIRDIDQDIHGIVFQH [SSN2] | 2.5 ± 0.049 | 2.6 ± 0.056 | 2.72 ± 0.051 | 2.75 ± 0.033
37 | IEHNLRVISEYYSRITL [RPN5] | 2.63 ± 0.087 | 2.54 ± 0.078 | 2.41 ± 0.063 | 2.46 ± 0.073
38 | VRLQRQKKILSIRLKVP [RPL8B] | 1.5 ± 0.032 | 1.29 ± 0.032 | 1.27 ± 0.055 | 1.25 ± 0.025
39 | FSYQEVEFKLPKELVPS [CDC53] | 2.13 ± 0.056 | 2.16 ± 0.045 | 2.07 ± 0.076 | 1.91 ± 0.047
40 | DIAGQRDDALVVETITS [RRP42] | 3.1 ± 0.11 | 3.28 ± 0.094 | 2.27 ± 0.27 | 2.56 ± 0.092
41 | LTIVTCKQFPKLSCIQL [SRB8] | 1.99 ± 0.07 | 1.86 ± 0.058 | 1.46 ± 0.05 | 1.6 ± 0.03
42 | LDDPEAVSKDPLLTKRK [DIS3] | 2.9 ± 0.11 | 3.44 ± 0.1 | 3.34 ± 0.094 | 3.1 ± 0.059
43 | VDDDQDYVVAPGVNREI [GRR1] | 3.17 ± 0.13 | 3.13 ± 0.15 | 3.31 ± 0.2 | 3.29 ± 0.2
44 | KIQQHNTILNSSSDFRL [BRR2] | 2.71 ± 0.06 | 2.89 ± 0.067 | 2.89 ± 0.041 | 2.78 ± 0.046
45 | RTMDDIKDSVREVGTKF [ECM29] | 3.35 ± 0.11 | 3.47 ± 0.11 | 3.27 ± 0.088 | 3.29 ± 0.072
46 | RLLSALGPRGVSITPGK [SRP21] | 2.97 ± 0.078 | 3.04 ± 0.074 | 3.29 ± 0.078 | 2.93 ± 0.054
47 | ILKDLIYRGVLNDENSD [SMC1] | 1.81 ± 0.059 | 2.18 ± 0.076 | 1.92 ± 0.13 | 2.21 ± 0.066
48 | VDASPNDVTRRTVKNIL [CSL4] | 3.19 ± 0.085 | 3.18 ± 0.085 | 3.1 ± 0.078 | 3.3 ± 0.063
49 | RELEQIKPKIALQDKEI [SNF12] | 3.15 ± 0.18 | 3.35 ± 0.17 | – | 3.05 ± 0.13
50 | KFLREVFVDGEANWPLP [RPO21] | 2.85 ± 0.085 | 3.16 ± 0.079 | 3.04 ± 0.093 | 3.12 ± 0.074
51 | TVINEQQREAVRQLYKG [RPL35A] | 3.44 ± 0.094 | 3.43 ± 0.14 | 3.13 ± 0.12 | 3.31 ± 0.079
52 | DYVVAPGVNREINSEMC [GRR1] | – | 3.18 ± 0.2 | 3.32 ± 0.082 | 3.13 ± 0.064
53 | NNKILEKCKEINVETVY [BRR2] | 1.73 ± 0.06 | 2 ± 0.062 | 1.78 ± 0.19 | 2.06 ± 0.067
54 | ELESMLEDLKNTKEIAV [RRP6] | 2.18 ± 0.08 | 2.27 ± 0.051 | 2.33 ± 0.063 | 2.61 ± 0.044
